Source: the DeepSol protein solubility set

Test: soluble on expression in E. coli; label from the status in PepcDB or PDB records

Row | Sequence | soluble on expression in E. coli
1 | MSLKIAITGASGFVGSHLSSQFGGSHTLLPLGRRELSDPTKLSSLLEGVDWIINLAGAPIIAKWSESYKKVLYSSRIETTRSLLLALKECPTKPSLFTSTSAIGIYDNQGTYAEGDLALAQDFLGKLAKDWEEEALKAQDLGIRTVVFRFGVVLGKGGGMMEKLRLPFSLGLGGVIGDGKQKFSWIHLHDIAKAMEFAWSTPSLSGIYNLTAPSPTTNEAFTKLYGSLIHRPTLLPVPLWALQILFGEGAKVLSDGQAAIPERLLQAGFEFEYPTLEKALKEIISEGHHHHHH | soluble
2 | MDVRRLKVNELREELQRRGLDTRGLKAELAERLQAALEAEEPDDERELDADDEPGRPGHINEEVETEGGSELEGTAQPPPPGLQPHAEPGGYSGPDGHYAMDNITRQNQFYDTQVIKQENESGYERRPLEMEQQQAYRPEMKTEMKQGAPTSFLPPEASQLKPDRQQFQSRKRPYEENRGRGYFEHREDRRGRSPQPPAEEDEDDFDDTLVAIDTYNCDLHFKVARDRSSGYPLTIEGFAYLWSGARASYGVRRGRVCFEMKINEEISVKHLPSTEPDPHVVRIGWSLDSCSTQLGEEPFSYGYGGTGKKSTNSRFENYGDKFAENDVIGCFADFECGNDVELSFTKNGKWMGIAFRIQKEALGGQALYPHVLVKNCAVEFNFGQRAEPYCSVLPGFTFIQHLPLSERIRGTVGPKSKAECEILMMVGLPAAGKTTWAIKHAASNPSKKYNILGTNAIMDKMRVMGLRRQRNYAGRWDVLIQQATQCLNRLIQIAARKKRNYILDQTNVYGSAQRRKMRPFEGFQRKAIVICPTDEDLKDRTIKRTDEEGKDVPDHAVLEMKANFTLPDVGDFLDEVLFIELQREEADKLVRQYNEEGRKAGPPPEKRFDNRGGGGFRGRGGGGGFQRYENRGPPGGNRGGFQNRGGGSGGGGNYRGGFNRSGGGGYSQNRWGNNNRDNNNSNNRGSYNRAPQQQPPPQQPPPPQPPPQQPPPPPSYSPARNPPGASTYNKNSNIPGSSANTSTPTVSSYSPPQPSYSQPPYNQGGYSQGYTAPPPPPPPPPAYNYGSYGGYNPAPYTPPPPPTAQTYPQPSYNQYQQYAQQWNQYYQNQGQWPPYYGNYDYGSYSGNTQGGTSTQ | soluble
3 | MGSDKIHHHHHHMSESWVAVTGATGFIGNALLQSLIKEGWKVRALTRRARVDDESTQWIEGDLHDRDALRKLVTGVSAVVHCAGQVRGSSLESFVRTNVEGTANLMQASLEQNPPPRFLLVSSLAARQPELSWYATSKHMAERLIDERSAGMACAIFRPTAVYGPGDKEMSPLFRITRRGILPMVGQPEMRFGLLHVADLVAAITCWLSTAVPVQGTYELDDGMPGGYDSQAVATIAQEVWKRPVRCVFFPAPLVSLIANINLWSARMLSYSPMLTPGKVRELRHPDWVCDIDPLTRALPGWRPCIHLRDALPQAV | not soluble
4 | METMTELNTKEMKLDALLKDMQSVVIAFSGGVDSSLLLKKAIDILGVNYVKPVVVKSELFRNEEFELALKLGQSLGVEVLETEMSELQDANIVKNTPESWYYSKRLMYSQLENIKNKLGFNYVLDGMIMDDLDDFRPGLKARDDFGVRSVLQEAKLYKSEVRELSHQHDLPVWNKPALCSLASRIPYGEELSFTKVNKVNEAEKFILSLGINHVRVRYHHNIARIEVTEDQLNNLLKLKDSIILHLKELGFDYVTMDLEGYRTGSMNEIIDTKSTSFK | not soluble
5 | MSLNVVVQKYGGSSVATPERIKNVAQRIKKKVDEGYKVVVVVSAMGKTTDNLIKLAKEISPRPDSRELDMLLATGEQVSAALLSMALKDLGVKAKSLNAFQVKIKTTPHHTSARIVDIDDSVIRENLKDYDVLVVTGFQGVNEHGDLTTLGRGGSDTSAVALAAKLRVPCEIYSDVDGIYTCDPRVHPRAKKLAYITYDEALELTALGAKVLHSRSVEIAKKYGIPIYCASSFTEEEGTMVVERLPEWLEEPVVTGATISHGQIKVSISFLPKDVKYITAIFEEVGKRALNVDMISLVPSNGKVFLSFTILEDHKEDLDEALKEALRDVEGWKSTYEGGFAKLSIVGVGMRTSPGVAARFFEALERAGVTPELVTTSEIKISCLVPEEKAEEALKSVIEEFELEGHHHHHH | soluble
6 | CSSPQHASTVPGTTPSIWTGSPAPSGLSGHDEESPGAQSLTSTLTAPDGTKVATAKFEFANGYATVTIATTGVGKLTPGFHGLHIHQVGKCEPNSVAPTGGAPGNFLSAGGHYHVPGHTGTPASGDLASLQVRGDGSAMLVTTTDAFTMDDLLSGAKTAIIIHAGADNFANIPPERYVQVNGTPGPDETTLTTGDAGKRVACGVIGSG | soluble
7 | MILHPRPSPIAAAMYQLRDIGVDAIILHGPSGCCFRTARLLEIDGIRVFTSAMGENDFIFGAMDKLRDVIAEVLEYLKKETPKSEKYKIGIVGTCASMIIGEDLESLIDDFDDIIIPVDIHSGLVDNTVGAIRAMDGALNAGLIDYSEYLEHHHHHH | not soluble
8 | MGSDKIHHHHHHMERVLIIGALTFVGYHLVNKMIAEEVEVYGLDFDEFDSMTKINEEKLLLIGRNALFTYYSIRDEDGWRSVEEEKFDAVYFCLYEPNQQRGFRNERVILQYLKRMIRLCEEHKVKLNLISSIEVGNADESENKRLFSKVEEGLKKGEVQYSVFRVPTLYGPWQPSFMMYHQLMLSELGEKECHYAGEENGSDLLYVEDVCEYLWENGMNEEHLGIYNLLSGKKSLWKKGMNLLRAEDKVNKENAEERDGAAEDILIKRNTPLEYGLNKQLAHMKKYKELYEG | not soluble
9 | MSLQVEKISIIGLGLIGGSLAKALKEKLGIESITAVDINEKSLSQALKEGFIKEGFTELNESVYNSDIIFICTPVKDAVEYITRLHGKVKAGCILTDTASTKGEIIDYVNSLDNPPCFIGGHPMAGTEKAGFSSSFSHLFENAYYIMSPSKNCPEESLEYLAEIIRGIGAIPIKLDSKEHDIITATISHVPHVIASALVNLVKFSDSPDGKMQTLAAGGFKDITRIASSNPKMWENIILSNKEIVKSTLNKFTETINTFIEYIDNENSNGIYNFFDSAKKFRDSIPNNRKGLIEPQNELIVDVVDKPGIIGEIATILGNNGINIKNINVSNSREFEQGCLRITLPDSGSVAEAYELLAKKGYKVFKIEGHHHHHH | soluble
10 | NYYERHIGDYARDTGYLSVLEHGIYCLLLDRYYATEQPIPANKAHRIARAHSKKEKSAVDVVLDEFFLLQ | not soluble
11 | AIADFSENASGIPAEELAFPEIIELNVGGQVYITRYLTLTSVPDSLLWKMFSQKSSKDLARDTKGRFFIDRDGFLFRYILDYMRDQQLVLPEHFPEQGRLQREAEFFNLPELVQLLAPKISKQNTLGDDGCQTDQDESSPGANITCNLSSLGAYSSLGAATADGQRSGFITIGCRGSYTLGRDCQTDAKFRRVARIMVCGKTSLAKEVFGETLNESHDPDRQPDRYTSRYYLKFTSLEQAFDRLADAGFHMVACNSTGTCAFAHVQTDDKIWTSYNEYVFYRE | soluble
12 | MSLERNYEESALFEHQFWLKVLTDHAQFLLDALAPKEKEDIKKATYFVETFTNLLNKVRNVNLMAFSKEAEQAAKEIRAFKLNIIQKQLEGKITIHFTPTFINHMVNEVEEYIAVLEFLKKGEVPPVFHELHYHLVWLTDAAGHAGSISGGLDLVEKRLKEKSEEFTKHFEQFYLKAVEMTGYLRTELHHFPALKKFTKDVSLELKLFSHFLHEVEELELSNEVLSVLSARMADHMAREECYYLLKLAQSSGLEMPKCNPLEGHHHHHH | soluble
13 | SIEFSTAITRQIVLDTETTGMNQIGAHYEGHKIIEIGAVEVVNRRLTGNNFHVYLKPDRLVDPEAFGVHGIADEFLLDKPTFAEVADEFMDYIRGAELVIHNAAFDIGFMDYEFSLLKRDIPKTNTFCKVTDSLAVARKMFPGKRNSLDALCARYEIDNSKRTLHGALLDAQILAEVYLAMTGGQTSMATRESG | soluble
14 | MFRHVAQNLGSRNTSIQSYRLLRTRWERGYLKDLYHRRQILGADPAISRSSYPNCSVQVRNHHCSADKSTLQWAPIKTSIDNSSDDFAANTAEMKVLVEDLKAKISKIEQAGGEKAVKLHRSRGKMLARERIDGIVDAGSPFIEFSQLAGYEMYGKEEVPSGGILTGVGIVSGRVCVIVANDATVKGGTYYPITVKKHLRAQEIARENKLPCIYLVDSGGANLPRQADIFADSQHFGRIFYNQATMSSEGIPQLAVVMGSCTAGGAYVPAMSDQAIIVKGTGTVFLGGPPLVKAATGEEISAEELGGADLHCGESGVTDYYAHNDKHALYLARSCIAGLPPVEEHMTFNPNADEPLYPAEEIYGIVGSNLKKTYDVREVIARIVDGSRFHEFKERYGETLVTGFATIYGQRVGILANNGVLFAESAMKGSHFIELCCQRKIPLLFLQNITGFMVGRDAEAGGIAKHGAKLVTAVACAKVPKITVLVGGSYGAGNYGMCGRGYSPRYVFMWPNSRISVMGGEQAANVLSTVQKEKKKREGADWTDQQDLELRKPVEEKFEKEGHPYFASARLWDDGVIDPKDTRKVLGLAFQSTLQKPIPETKFGVFRM | not soluble
15 | MAHHHHHHMGCFNSTDAVADQDPASGYMYTKPNAKGTKEALFGGLLYRITDEEEGGLAFYNNSKDYEFHIKYLFGADSELNAVGDTKLEMQDDGILAEVVVYPLETKPFVQGTIDGYETKLEALPLSEEYFALHPEIDEAAYYRRLEAPKSSRF | soluble
16 | MGSDKIHHHHHHMIRKHFKGYNFVCIPETGVTFRWGDSIAEDPYMAPWPELADISISNYCTNGCEYCYRASNEEGIFMTVADYKFILGQLTSKEYGSIFQVALGGGEPLLHPDFNEILHVTREEYGIIPNYTTCGKYFNQKNMEASKKYCGAVAVSWDPYRDNLSLEELRELGVQLKEEKIRTNIHYVISERTLIEAIKLLKGKYDEYLKDFNSVIFLTYKAAGRADKSDVIKSQKYLREFLDMVDAPLTKLKLGFDACFVPVLMKATGVDTDLVDSCECGFFSVYVSESMEVMPCSFCNNSNFTYNLKDLCFKDIWQKHFSAYRSYVNDNCKTGCAECDERSGCRGKCSFYNDIYLCNLV | not soluble
17 | MGSDKIHHHHHHMNFPRPLVPATLVQRYKRFLFDAILADGTAITGSCPNTGSMRGLTIPGSPIWLSEHDSPTRKYRHMLEIVEADGTLVGINTGLPNRIAEEAIMAGQVGNLHTYGTLRREQRYGRNSRIDILLSDAEKGLAYVEVKNVHFSRVRGLAEFPDSPTQRGAKHLEELGDMVEAGHRAIMLYLIQRGDCSRFRICRELDPVYARAFERASARGVEAYAVKCAVSPGQIVAAGPIVVDEPVPAVL | not soluble
18 | MGSDKIHHHHHHMTRGIALFFWNRKKATKKISPEPEAAQEVWQRKKYRTNYYTYNSAKERGSLRSKKQRKHEIGEYKLEVGLAHLPRCFRRLSNLLLGTKGRFHQIDHVLISPYGIFLLEANNLSGLIVGEETESKWYQAITWRVKTFPNPIMENQVRVQMLQELAGLDQTIPVFSYVTFNRSCSLKVFSGMVFYDIDLPASIMQLAQNQPAVLSDEEILELVERIEKINLTDLGLRNEYAARQRRERMQYRPKYGDIRCSICQKAVNERMARYCLNRPEKFAWKIYCEKHQREMTRVVRREGGREGHGPYPESTDSKKESMD | not soluble
19 | MSQLVYFSSSSENTQRFIERLGLPAVRIPLNERERIQVDEPYILIVPSYGGGGTAGAVPRQVIRFLNDEHNRALLRGVIASGNRNFGEAYGRAGDVIARKCGVPWLYRFELMGTQSDIENVRKGVTEFWQRQPQNA | soluble
20 | MGSDKIHHHHHHMSFKKSELLNVLDMAFKKEFGKGLSLISPQWGLIAMKISSSTKTNTYGWLGFFPKMREWVGERQIKKMQAQAMSIENKTFESTVSISRTDIEDDQAGLFAPVVQQAGQSAAELPDDLVFSLLAKGKSTLCYDGQNFFDTDHPVYENVDGTGSHKEQSNLTTGSASEHPTFYILDDTNAIKPFIWQERSAPEIETKFDPSRSDKVFMEDVYLWGVRARGNAGFGFWQLIHCVEETELTADAVMKVLAQMRMLKGDGGKLLNIRPSTILVPPALEFKARQLFEAEIINGSTNPLKGVLKVAVSAQIATA | not soluble
